Measured values reported in patent publication US20210277118A1 (Daiichi Sankyo, published 2021).

B1: rat anti-CD3 monoclonal antibody C3-147 (antibody, rat IgG2b, V domains shown)
VH: EVQLVESGGGLVQPGRALKLSCVVSGVTFNYYGMSWIRQAPGKGLEWVASITNSGGRIYYPDSVKGRFTISRENTQKTLYLQMNSLRSEDTATYYCTLDGRDGWVAYWGQGTLVTVSS
VL: QFVLTQPNSVSTNLGTTVELSCKRNTGNIGSNYVNWYQQHEGRSPTTIIYRDDKRPDGVSDRFSGSIDRSSKSALLTINNVQTEDEADYFCQSYSSGFIFGGGTKLTVL
notes: Rat IgG2b with lambda chains (printed 'X chains'); tested as hybridoma culture supernatant
B2: variant 19362, monovalent anti-CD3 scFv-heterodimeric Fc (VL hC3E-1_6L3b (D52N), VH hC3E-1) (Fc fusion, not shown: a dimerising Fc or GST; small tags and cut ends)
scFv: EVQLVESGGGLVQPGGSLRLSCAASGVTFNYYGMSWIRQAPGKGLEWVASITNSGGRIYYPDSVKGRFTISRENTQKTLYLQMNSLRAEDTAVYYCTLDGRDGWVAYWGQGTLVTVSSGGGGSGGGGSGGGGSNFMLTQPHSVSESPGKTVTISCKRNTGNIGSNYVNWYQQLPGTAPKTIIYRNDKRPDGVPDRFSGSIDSSSNSASLAISGLQSEDEADYYCQSYSSGFIFGGGTKLTVL
notes: scFv order VH-(GGGGS)3-VL on Fc chain A; chain B is Fc only; also called v19362
B3: variant 21831, monovalent anti-CD3 scFv-heterodimeric Fc (VL hC3E-1_1L1d, VH hC3E-1(N53S)) (Fc fusion)
scFv: EVQLVESGGGLVQPGGSLRLSCAASGVTFNYYGMSWIRQAPGKGLEWVASITSSGGRIYYPDSVKGRFTISRENTQKTLYLQMNSLRAEDTAVYYCTLDGRDGWVAYWGQGTLVTVSSGGGGSGGGGSGGGGSQVVLTQPPSASGTPGQRVTISCKRNTGNIGSNYVNWYQQLPGTAPKLLIYRDDKRPDGVPDRFSGSKSGTSASLAISGLQSEDEADYYCQSYSSGFIFGGGTKLTVL
notes: scFv order VH-(GGGGS)3-VL on Fc chain A; chain B is Fc only; also called v21831; not shown: Fc-only chain B is also left out

Tests used:
[1] = target: T1, human CD3 epsilon/delta expressed on transfected cells (hCD3epsilon-pcDNA3.1 and hCD3delta-pcDNA3.1 in … (human, UniProt P07766 23-207; P04234 22-171); test: cell ELISA and flow cytometry on transfected cells, hybridoma supernatant
T1 construct: whole, on cells

[2] = target: T2, monkey CD3 epsilon/delta expressed on transfected Lenti-X293T cells (cynoCD3epsilon-pcDNA3.1 and … (monkey, UniProt Q95LI5 22-198; Q95LI8 22-171); test: flow cytometry on transfected Lenti-X293T cells, hybridoma supernatant
T2 construct: whole, on cells
Protocol: Flow cytometry analysis of binding activity to monkey CD3. The monkey CD3 binding specificity of the antibody produced by each hybridoma determined to produce the antibody binding to human CD3 was further confirmed by flow cytometry. Each Lenti-X293T cell suspension was added at a concentration of 100 μL/well to a 96-well U-bottomed microplate and centrifuged to remove a supernatant. The cynoCD3c-pcDNA3.1- and cynoCD3δ-pcDNA3.1-transfected Lenti-X293T cells or the pcDNA3.1-DEST-transfected Lenti-X293T cells were suspended by the addition of the hybridoma culture supernatant and left standing at 4° C. for 1 hour. The cells were washed once with PBS containing 5% FBS, then suspended by the addition of Anti-Rat IgG FITC conjugate diluted 500-fold with PBS containing 5% FBS, and left standing at 4° C. for 30 minutes. The cells were washed twice with PBS containing 5% FBS and then resuspended in PBS containing 5% FBS and 2 μg/ml 7-aminoactinomycin D, followed by detection using a flow cytometer. The data was analyzed using Flowjo. After removal of 7-aminoactinomycin D-positive dead cells by gating, the FITC fluorescence intensity of live cells was plotted to a histogram.

[3] = target: T3, human CD3 expressed on T cells (Jurkat cells, human pan T cells/PBMC) (human, UniProt P07766 23-207); test: flow cytometry on human T cells
T3 construct: whole, on cells; On T cells CD3 epsilon stands in the CD3 complex with the gamma, delta and zeta chains and the T-cell receptor; only the epsilon chain is written out; also called CD3+ Jurkat cells; human T cells
Protocol: (§1) Frozen human pan T cells or PBMCs were thawed and incubated with either media or serial dilutions of the anti-CD3 scFv-Fc constructs for one hour at 4° C. Commercially available SP34-2 antibody was used as positive controls while untreated cultures were used as negative controls. Following incubation with the anti-CD3 scFv constructs, the cells were washed and stained with a panel of conjugated antibodies specific for CD4, CD8, and IgG-Fc. The samples were acquired on a flow cytometer and analyzed using FlowJo version 10.1 software.

[4] = target: T4, cynomolgus monkey CD3 expressed on T cells (cynomolgus pan T cells/PBMC, HSC-F cell line) (cynomolgus monkey, UniProt Q95LI5 22-198); test: flow cytometry on cynomolgus T cells
T4 construct: whole, on cells; On T cells in the CD3 complex with the other subunits; only the epsilon chain is written out; also called cyno CD3; cyno T cells
Protocol: (§2) Frozen Cynomolgus monkey PBMCs were thawed then washed with RPMI-1640 media. Pan T cells were then isolated from the PBMCs using a negative isolation kit (Miltenyi Biotec, San Diego, Calif.) as per the manufacturer's instructions. The pan T cells were incubated in media alone or media containing serial dilutions of the anti-CD3 scFv-Fc constructs for one hour at 4° C. Commercially available SP34-2 antibody was used as positive controls while untreated cultures were used as negative controls. Following incubation with the anti-CD3 scFv constructs, the cells were washed and stained with a panel of conjugated antibodies specific for CD4, CD8, and IgG-Fc. The samples were acquired on a flow cytometer and analyzed using FlowJo version 10.1 software.

[5] = target: T4, cynomolgus monkey CD3 expressed on T …; test: flow cytometry on cynomolgus pan T cells gated CD4+, detection with anti-IgG-Fc, geo MFI
Protocol: as §2

[6] = target: T3, human CD3 expressed on T cells (Jurkat …); test: cell ELISA on CD3+ Jurkat cells
Protocol: Cells were centrifuged and seeded in a 96-well filter plate in 50% complete culture medium/50% Blocking buffer. Equal volumes of 2× anti-CD3 scFv-Fc constructs or controls were added to cells and incubated for 1 hour. The plate was washed 4 times using vacuum filtration. An HRP-conjugated anti-human IgG Fc gamma specific secondary antibody was added to the wells and further incubated for 1 hour. The plate is washed 7 times by vacuum filtration followed by the addition of TMB substrate at room temperature. The reaction was stopped by adding 1 M sulfuric acid and supernatant was transferred into a clear 96-well plate. Absorbance (450 nm) was read on a Spectramax 340PC plate reader with path-check correction. Binding of the different scFv-Fc constructs to Jurkat cells and the apparent binding affinities are shown in FIG. 7 and Table 7, respectively.

[7] = target: T5, Recombinant CD3epsilon/delta Fc fusion protein (Sino Biological) (human, UniProt P07766 23-126; P04234 22-105); test: SPR (ProteOn XPR36), CD3epsilon/delta Fc fusion captured on anti-Fc chip, variant injected for 240 s; kinetic constants printed above the sensorgrams
T5 construct: Bought reagent; also called recombinant CD3 fusion protein; human CD3 antigen; not shown: Fc of the bought fusion protein; not described
Protocol: (§3) All SPR binding experiments were carried out using a BioRad ProteOn XPR36 instrument (Bio-Rad Laboratories, Hercules, Calif.) at 25° C. with 10 mM HEPES, 150 mM NaCl, 3.4 mM EDTA, and 0.05% Tween 20 at pH 7.4. Recombinant CD3epsilon/delta Fc fusion protein (Sino Biological, Wayne, Pa.) was captured on anti-Fc capture sensorchips. Purified antibodies were indirectly captured on the sensorchip by binding the recombinant CD3 fusion protein when injected at 25 μL/min for 240s (resulting in approx. 500 RUs) following a buffer injection to establish a stable baseline. Resultant KD values were determined from binding isotherms using the Equilibrium Fit model with reported values as the mean of three independent runs.

[8] = target: T5, Recombinant CD3epsilon/delta Fc fusion …; test: SPR (ProteOn XPR36), Equilibrium Fit, mean of three runs
Protocol: as §3

[9] = target: T3, human CD3 expressed on T cells (Jurkat …); test: flow cytometry on human T cells gated CD4+, detection with anti-IgG-Fc, geo MFI
Protocol: as §1

T3 sequence (P07766 23-207): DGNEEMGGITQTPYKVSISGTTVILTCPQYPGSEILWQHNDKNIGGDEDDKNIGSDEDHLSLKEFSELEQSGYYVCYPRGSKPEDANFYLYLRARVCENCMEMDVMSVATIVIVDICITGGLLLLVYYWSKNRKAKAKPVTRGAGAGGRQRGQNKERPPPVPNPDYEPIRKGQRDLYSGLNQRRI
T4 sequence (Q95LI5 22-198): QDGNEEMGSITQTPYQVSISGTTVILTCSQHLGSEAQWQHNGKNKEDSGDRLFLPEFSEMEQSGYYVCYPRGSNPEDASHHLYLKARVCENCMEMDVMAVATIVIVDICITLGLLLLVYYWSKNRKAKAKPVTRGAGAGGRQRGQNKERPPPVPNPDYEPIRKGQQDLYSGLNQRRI
T5 sequence (P07766 23-126, stated change not applied, chain 1 of 2): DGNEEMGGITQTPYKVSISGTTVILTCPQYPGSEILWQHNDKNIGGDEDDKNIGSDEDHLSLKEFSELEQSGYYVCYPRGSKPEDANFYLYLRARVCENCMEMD
T5 sequence (P04234 22-105, stated change not applied, chain 2 of 2): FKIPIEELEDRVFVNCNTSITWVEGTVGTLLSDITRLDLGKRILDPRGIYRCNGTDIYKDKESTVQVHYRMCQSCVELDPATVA
T1 sequence (P07766 23-207, stated change not applied, chain 1 of 2): as the sequence (P07766 23-207) above
T1 sequence (P04234 22-171, stated change not applied, chain 2 of 2): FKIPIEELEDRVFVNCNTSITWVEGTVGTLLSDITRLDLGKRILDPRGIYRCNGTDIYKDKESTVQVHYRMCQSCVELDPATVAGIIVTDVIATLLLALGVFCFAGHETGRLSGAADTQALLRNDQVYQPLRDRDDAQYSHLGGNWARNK
T2 sequence (Q95LI5 22-198, stated change not applied, chain 1 of 2): as the sequence (Q95LI5 22-198) above
T2 sequence (Q95LI8 22-171, stated change not applied, chain 2 of 2): as the sequence (P04234 22-171, stated change not applied, chain 2 of 2) above, with I5V, N15K, I20V, S32T, D33N, I34N, T64A, S74N, V83L, H141R counted along it

Binder	binding result [1]	binding result [2]	EC50 [3]	EC50 [4]	EC50 (read off the curve) [5]	EC50 [6]	Kd [7]	koff [7]	kon [7]	Kd [8]	EC50 (read off the curve) [9]
B1	binds	binds	–	–	–	–	–	–	–	–	–
B2	–	–	~0.6 nM	1.9 nM	~2 µg/mL	1.35 nM	3.03 nM	0.00242 s⁻¹	798000 M⁻¹ s⁻¹	3 nM	–
B3	–	–	1 nM	40.7 nM	–	3.96 nM	23 nM	0.0225 s⁻¹	977000 M⁻¹ s⁻¹	22.9 nM	~1 µg/mL
